These are literature values, as cited in paper PMC4463550.

As a reminder, the Kd is the equilibrium constant for the complex coming apart. The pKa is the negative logarithm of the acid dissociation constant.

In one data set the target is PAD4 (Homo sapiens) (UniProt Q9UM07).
In a further data set the target is Cys647 (UniProt position 647, LGEVHCGTNVR). The experiment in a line: chemical modification. As to conditions: calcium state not stated.
Another data set has as its target His471 (UniProt position 471, WLSVGHVDEFL). As to conditions: PAD4; state not stated.
For a further data set, the target named is Cys645 (UniProt position 645, HGEVHCGTNVR). The experiment in a line: chemical modification. As to conditions: PAD4, no substrate; calcium state not stated.

Chain of PAD4 (Q9UM07 whole entry): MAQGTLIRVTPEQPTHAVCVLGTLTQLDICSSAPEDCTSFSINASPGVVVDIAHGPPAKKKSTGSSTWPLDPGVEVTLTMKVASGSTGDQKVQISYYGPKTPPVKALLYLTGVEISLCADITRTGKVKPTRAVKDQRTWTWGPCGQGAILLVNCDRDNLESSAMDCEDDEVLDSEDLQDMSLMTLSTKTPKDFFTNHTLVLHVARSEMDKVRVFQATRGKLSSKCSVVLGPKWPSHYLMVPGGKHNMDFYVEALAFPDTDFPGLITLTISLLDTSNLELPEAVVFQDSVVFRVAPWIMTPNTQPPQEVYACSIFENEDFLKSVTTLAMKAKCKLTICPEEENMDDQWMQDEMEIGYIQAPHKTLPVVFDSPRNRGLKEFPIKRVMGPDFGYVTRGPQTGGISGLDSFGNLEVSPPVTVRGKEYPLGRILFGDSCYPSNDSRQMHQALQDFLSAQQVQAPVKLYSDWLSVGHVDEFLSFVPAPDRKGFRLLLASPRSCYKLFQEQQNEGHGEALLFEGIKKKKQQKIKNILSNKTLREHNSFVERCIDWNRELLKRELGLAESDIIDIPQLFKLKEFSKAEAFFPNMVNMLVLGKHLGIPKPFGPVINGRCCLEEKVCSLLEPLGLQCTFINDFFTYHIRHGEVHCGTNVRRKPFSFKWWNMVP

As to PAD4 (from UniProt Q9UM07), the Kd with PAD4 (Homo sapiens) was 450 nM.
As to “Protein arginine deiminase 2 (PAD2) (Homo sapiens)”, the pKa with Cys647 (PAD2, no substrate) is on record as 8.2; with Cys647 (PAD2 reacting with the substrate-mimicking, positively charged inactivator 2-chloroacetamidine) it was 7.2.
“Protein arginine deiminase 4 (PAD4) (Homo sapiens)”: the pKa entry with His471 is listed as “∼7.3”; with Cys645 it was “≈ 8.3”.
